Measurements published in patent publication US20210338656A1, “IMMUNOSTIMULATORY AGENTS IN COMBINATION WITH ANGIOGENESIS INHIBITORS” (Alkermes Pharma Ireland Limited, priority 2020, published 2021).

Columns and labels:
[1] = test system: conventional CD4+ T cells, CD4+ Tregs, CD8+ T cells, macrophages, dendritic cells in tumors and spleens; test: Flow cytometry of tumors and spleens of MC38 tumor-bearing mice, Day 10; assay type: in vivo, mouse
Protocol: On Day 10 spleens and tumors were collected and weighed from all animals in Groups 7 through 12 and weighed prior to processing. Tissues from four animals in each group were processed to single cell suspensions for flow cytometry analysis at CRL-NC (described below). Tissues from the remaining six animals in each group were preserved in RNAlater, stored at −80° C.
Mouse spleen samples were dissociated by gently grinding the tissue across fine mesh with RPMI-1640 media and lysing red blood cells with ACK (ammonium chloride potassium) buffer according to the manufacturer's instructions. Samples were centrifuged and washed twice with PBS.
Mouse tumor samples were dissociated according to the manufacturer's instructions using the gentleMACS™ “Tumor Dissociation Kit” protocol. Tumor samples were filtered through a 70 μm cell strainer and rinsed twice in PBS/2.5% FBS buffer to remove enzymatic buffer. Total tumor sample and plated well volumes were measured and recorded.
Total tissue volumes and Cellometer counts from each sample were recorded. Final single cell suspensions were prepared in PBS pH 7.4 at 2×10^7 cells/mL and held briefly on ice prior to flow cytometry analysis, including conventional CD4^+ T cells, CD4^+ Tregs, CD8^+ T cells, macrophages, and dendritic cells (as % CD45^+ and as cells/mg tissue).
Single cell suspensions were added into 96-well plates and stained for 30 minutes at 4° C. with 100 μL of the reconstituted Live/Dead Aqua (Life Technologies) following manufacturer's instructions. After two washes with 150 μL of Staining Buffer, Fc receptors were blocked using TruStain Fc (Biolegend) in 100 μL volume for five to ten minutes on ice prior to immunostaining. Cells were stained for 30 minutes at 37° C. with antibody panels as described in the protocol. Cells were washed twice with 150 μL of Staining Buffer and resuspended in […] Staining Buffer for analysis. For staining of internal markers such as FoxP3, cells were permeabilized with 200 μL of Transcription Factor Fixation/Permeabilization buffer (eBioscience) for 15 minutes at 4° C. according to manufacturer's instructions. After two washes with 150 μL of Permeabilization Buffer (eBioscience), internal marker staining was carried out using 0.1 μg of each antibody diluted in 100 μL of Permeabilization Buffer for 30 minutes at 4° C. protected from the light. Cells were washed twice with 150 μL of Permeabilization Buffer and resuspended in 100 μL of Staining Buffer. 100 μL of Staining Buffer containing Countbright beads were added to each sample. Isotype-control antibodies were used as negative staining controls when deemed necessary.
All data were collected on a FortessaLSR (BD) and analyzed with FlowJo software (version 10.0.7r2, Tree Star, Inc.). Cell populations were defined as described in the protocol, and the gating strategy was determined by initial gating on singlets (FSC-H vs. FSCA) and then live cells, based on Live/Dead Aqua viability staining.

[2] = Tolerability in vivo in mice relative to rhIL-2; set-up: species or system mouse; details: doses that elicit equivalent or greater expansion of effector cells relative to Tregs

Molecule	macrophages in spleens and tumors [1]	conventional CD4+ T cells in spleen ([1]; compared to vehicle)	CD4+ Tregs in spleens [1]	CD8+ T cells in spleens and tumors [1]	Foxp3+ regulatory T cells (Tregs) [1]	dendritic cells in spleens and tumors [1]	numbers of conventional CD4+ T cells in tumors ([1]; compared to vehicle)	peripheral CD8+ T cell expansion ([1]; compared to vehicle)	tolerability relative to recombinant human IL-2 (rhIL-2) [2]
CNC(=O)c1cccc2cc(Oc3ccnc4cc(OCC5(N)CC5)c(OC)cc34)ccc12 [Lucitanib, 6-(7-((1-Aminocyclopropyl)-methoxy)-6-methoxyquinolin-4-yloxy)-N-methyl-1-naphthamide]	decrease	increase							
SEQ ID NO: 2: mouse ortholog construct (murine surrogate) of the circularly permuted IL-2/IL-2Rα fusion protein of SEQ ID NO: 1 (protein, Mouse cpIL-2IL-2R-alpha) SKSFQLEDAENFISNIRVTVVKLKGSDNTFECQFDDESATVVDFLRRWIAFCQSIISTSPQGGSSSTQQQQQHLEQLLMDLQELLSRMENYRNLKLPRMLTFKFYLPKQATELKDLQCLEDELGPLRHVLDLTQGSGGGSELCLYDPPEVPNATFKALSYKNGTILNCECKRGFRRLKELVYMRCLGNSWSSNCQCTSNSHDKSRKQVTAQLEHQKEQQTTTDMQKPTQSMHQENLTGHCREPPPWKHEDSKRIYHFVEGQSVHYECIPGYKALQRGPAISICKMKCGKTGWTQPQLTCVDGSHHHHHH	decrease	decreased	decrease	increase	without an increase	increase	neither treatment with SEQ ID NO: 2 nor the combination with lucitanib changed the numbers	significant peripheral CD8^+ T cell expansion	improved tolerability
